Measured values from the RNAGym collection of RNA variant scans (doi:10.1093/molbev/msab373).

B1: Azoarcus group I ribozyme (parent)
chain: GUGCCUUGCGCCGGGAAACCACGCAAGGGAUGGUGUCAAAUUCGGCGAAACCUAAGCGCCCGCCCGGGCGUAUGGCAACGCCGAGCCAAGCUUCGGCGCCUGCGCCGAUGAAGGUGUAGAGACUAGACGGCACCCACCUAAGGCAAACGCUAUGGUGAAGGCAUAGUCCAGGGAGUGGCGAAAGUCACACAAACCGG

Variants of: B1
Experiment: reverse-splicing fitness (ratio to wild type); higher = more active; in vitro selection; Mg2+ level not given
Method in brief: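 An in vitro group I ribozyme library with randomized positions was T7-transcribed and gel-purified. In triplicate, 10 pmol RNA in EPPS pH 7.5 was reacted with 50 pmoles of a 30-nt RNA substrate for 1 h at 37 °C across several added MgCl2 levels (1–48 mM), then stopped with EDTA. Products were reverse transcribed from a substrate-complementary primer, PCR-amplified and sequenced (HiSeq 4000). Fitness is a variant's read proportion after selection over that before, normalised to wild type.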

First: GUGCCUUGCGCCGGGAAACCACGCAAGGGAUGGUGUCAAAUUCGGCGAAACCUAAGCGCCCGCCCGGGCGUAUGGCAACGCGGAGCCAAGCUUCGGCGCCUGCGCCGAUGGAGGUGUAGCGACUAGACGGCACCCACCUAAGGCAAACGCUAUGGUGAAGGCAUAGUCUAGGGAGCGGCGAAAGUCACACAAACCGG
Second: GUGCCUUGCGCCGGGAAACCACGCAAGGGAUGGUGUCAAAUUCGGCGAAACCUAAGCGCCCGCCCGGGCGUAUGGCAACGCGGAGCCAAGCUUCGGCGCCUGCGCCGAUGGAGGUGUAGCGACUAGACGGCACCCACCUAAGGCAAACGCUAUGGUGAAGGCAUAGUCUAGGGAGGGGCGAAAGUCACACAAACCGG
The reverse-splicing fitness of the first is higher: 0.0134 for the first, 0.00596 for the second.

First: GUGCCUUGCGCCGGGAAACCACGCAAGGGAUGGUGUCAAAUUCGGCGAAACCUAAGCGCCCGCCCGGGCGUAUGGCAACGCGGAGCCAAGCUUCGGCGCCUGCGCCGAUGGAGGUGUAGCGACUAGACGGCACCCACCUAAGGCAAACGCUAUGGUGAAGGCAUAGUCUAGGGAGAGGCGAAAGUCACACAAACCGG
Second: GUGCCUUGCGCCGGGAAACCACGCAAGGGAUGGUGUCAAAUUCGGCGAAACCUAAGCGCCCGCCCGGGCGUAUGGCAACGCGGAGCCAAGCUUCGGCGCCUGCGCCGAUGGAGGUGUAGGGACUAGACGGCACCCACCUAAGGCCAACGCUAUGGUGAAGGCAUAGUCCAGGGAGUGGCGAAAGUCACACAAACCGG
The reverse-splicing fitness of the first is lower: 0.0138 for the first, 0.0157 for the second.

First: GUGCCUUGCGCCGGGAAACCACGCAAGGGAUGGUGUCAAAUUCGGCGAAACCUAAGCGCCCGCCCGGGCGUAUGGCAACGCGGAGCCAAGCUUCGGCGCCUGCGCCGAUGGAGGUGUAGCGACUAGACGGCACCCACCUAAGGCAAACGUUAUGGUGAAGGCAUAGUCGAGGGAGCGGCGAAAGUCACACAAACCGG
Second: GUGCCUUGCGCCGGGAAACCACGCAAGGGAUGGUGUCAAAUUCGGCGAAACCUAAGCGCCCGCCCGGGCGUAUGGCAACGCGGAGCCAAGCUUCGGCGCCUGCGCCGAUGGAGGUGUAGCGACUAGACGGCACCCACCUAAGGCAAACGUUAUGGUGAAGGCAUAGUCGAGGGAGGGGCGAAAGUCACACAAACCGG
The reverse-splicing fitness of the first is higher: 0.0206 for the first, 0.00572 for the second.

Compared with GUGCCUUGCGCCGGGAAACCACGCAAGGGAUGGUGUCAAAUUCGGCGAAACCUAAGCGCCCGCCCGGGCGUAUGGCAACGCGGAGCCAAGCUUCGGCGCCUGCGCCGAUGGAGGUGUAGCGACUAGACGGCACCCACCUAAGGCAAACGUUAUGGUGAAGGCAUAGUCGAGGGAGAGGCGAAAGUCACACAAACCGG, GUGCCUUGCGCCGGGAAACCACGCAAGGGAUGGUGUCAAAUUCGGCGAAACCUAAGCGCCCGCCCGGGCGUAUGGCAACGCGGAGCCAAGCUUCGGCGCCUGCGCCGAUGGAGGUGUAGGGACUAGACGGCACCCACCUAAGGCCAACGAUAUGGUGAAGGCAUAGUCAAGGGAGAGGCGAAAGUCACACAAACCGG is lower in reverse-splicing fitness: 0.0185 for the first, 0.0139 for the second.

Compared with GUGCCUUGCGCCGGGAAACCACGCAAGGGAUGGUGUCAAAUUCGGCGAAACCUAAGCGCCCGCCCGGGCGUAUGGCAACGCGGAGCCAAGCUUCGGCGCCUGCGCCGAUGGAGGUGUAGCGACUAGACGGCACCCACCUAAGGCAAACGUUAUGGUGAAGGCAUAGUCUAGGGAGUGGCGAAAGUCACACAAACCGG, GUGCCUUGCGCCGGGAAACCACGCAAGGGAUGGUGUCAAAUUCGGCGAAACCUAAGCGCCCGCCCGGGCGUAUGGCAACGCGGAGCCAAGCUUCGGCGCCUGCGCCGAUGGAGGUGUAGGGACUAGACGGCACCCACCUAAGGCAAACGCUAUGGUGAAGGCAUAGUCCAGGGAGUGGCGAAAGUCACACAAACCGG is higher in reverse-splicing fitness: 0.0144 for the first, 0.0208 for the second.

Compared with GUGCCUUGCGCCGGGAAACCACGCAAGGGAUGGUGUCAAAUUCGGCGAAACCUAAGCGCCCGCCCGGGCGUAUGGCAACGCGGAGCCAAGCUUCGGCGCCUGCGCCGAUGGAGGUGUAGCGACUAGACGGCACCCACCUAAGGCAAACGUUAUGGUGAAGGCAUAGUCUAGGGAGGGGCGAAAGUCACACAAACCGG, GUGCCUUGCGCCGGGAAACCACGCAAGGGAUGGUGUCAAAUUCGGCGAAACCUAAGCGCCCGCCCGGGCGUAUGGCAACGCGGAGCCAAGCUUCGGCGCCUGCGCCGAUGGAGGUGUAGCGACUAGACGGCACCCACCUAAGGCAAACGUUAUGGUGAAGGCAUAGUCUAGGGAGAGGCGAAAGUCACACAAACCGG is higher in reverse-splicing fitness: 0.00815 for the first, 0.0166 for the second.

Compared with GUGCCUUGCGCCGGGAAACCACGCAAGGGAUGGUGUCAAAUUCGGCGAAACCUAAGCGCCCGCCCGGGCGUAUGGCAACGCGGAGCCAAGCUUCGGCGCCUGCGCCGAUGGAGGUGUAGCGACUAGACGGCACCCACCUAAGGCAAACGUUAUGGUGAAGGCAUAGUCUAGGGAGCGGCGAAAGUCACACAAACCGG, GUGCCUUGCGCCGGGAAACCACGCAAGGGAUGGUGUCAAAUUCGGCGAAACCUAAGCGCCCGCCCGGGCGUAUGGCAACGCGGAGCCAAGCUUCGGCGCCUGCGCCGAUGGAGGUGUAGCGACUAGACGGCACCCACCUAAGGCAAACGUUAUGGUGAAGGCAUAGUCCAGGGAGAGGCGAAAGUCACACAAACCGG is higher in reverse-splicing fitness: 0.017 for the first, 0.0201 for the second.

First: GUGCCUUGCGCCGGGAAACCACGCAAGGGAUGGUGUCAAAUUCGGCGAAACCUAAGCGCCCGCCCGGGCGUAUGGCAACGCGGAGCCAAGCUUCGGCGCCUGCGCCGAUGGAGGUGUAGCGACUAGACGGCACCCACCUAAGGCAAACGUUAUGGUGAAGGCAUAGUCCAGGGAGCGGCGAAAGUCACACAAACCGG
Second: GUGCCUUGCGCCGGGAAACCACGCAAGGGAUGGUGUCAAAUUCGGCGAAACCUAAGCGCCCGCCCGGGCGUAUGGCAACGCGGAGCCAAGCUUCGGCGCCUGCGCCGAUGGAGGUGUAGCGACUAGACGGCACCCACCUAAGGCAAACGUUAUGGUGAAGGCAUAGUCCAGGGAGGGGCGAAAGUCACACAAACCGG
The reverse-splicing fitness of the first is higher: 0.0344 for the first, 0.0127 for the second.

Going from GUGCCUUGCGCCGGGAAACCACGCAAGGGAUGGUGUCAAAUUCGGCGAAACCUAAGCGCCCGCCCGGGCGUAUGGCAACGCGGAGCCAAGCUUCGGCGCCUGCGCCGAUGGAGGUGUAGGGACUAGACGGCACCCACCUAAGGCCAACGAUAUGGUGAAGGCAUAGUCAAGGGAGUGGCGAAAGUCACACAAACCGG to GUGCCUUGCGCCGGGAAACCACGCAAGGGAUGGUGUCAAAUUCGGCGAAACCUAAGCGCCCGCCCGGGCGUAUGGCAACGCGGAGCCAAGCUUCGGCGCCUGCGCCGAUGGAGGUGUAGCGACUAGACGGCACCCACCUAAGGCAAACGCUAUGGUGAAGGCAUAGUCCAGGGAGGGGCGAAAGUCACACAAACCGG, the reverse-splicing fitness rises from 0.00854 to 0.011.

First: GUGCCUUGCGCCGGGAAACCACGCAAGGGAUGGUGUCAAAUUCGGCGAAACCUAAGCGCCCGCCCGGGCGUAUGGCAACGCGGAGCCAAGCUUCGGCGCCUGCGCCGAUGGAGGUGUAGCGACUAGACGGCACCCACCUAAGGCAAACGCUAUGGUGAAGGCAUAGUCCAGGGAGCGGCGAAAGUCACACAAACCGG
Second: GUGCCUUGCGCCGGGAAACCACGCAAGGGAUGGUGUCAAAUUCGGCGAAACCUAAGCGCCCGCCCGGGCGUAUGGCAACGCGGAGCCAAGCUUCGGCGCCUGCGCCGAUGGAGGUGUAGCGACUAGACGGCACCCACCUAAGGCAAACGCUAUGGUGAAGGCAUAGUCCAGGGAGAGGCGAAAGUCACACAAACCGG
The reverse-splicing fitness of the first is higher: 0.045 for the first, 0.0255 for the second.

First: GUGCCUUGCGCCGGGAAACCACGCAAGGGAUGGUGUCAAAUUCGGCGAAACCUAAGCGCCCGCCCGGGCGUAUGGCAACGCGGAGCCAAGCUUCGGCGCCUGCGCCGAUGGAGGUGUAGCGACUAGACGGCACCCACCUAAGGCAAACGCUAUGGUGAAGGCAUAGUCGAGGGAGCGGCGAAAGUCACACAAACCGG
Second: GUGCCUUGCGCCGGGAAACCACGCAAGGGAUGGUGUCAAAUUCGGCGAAACCUAAGCGCCCGCCCGGGCGUAUGGCAACGCGGAGCCAAGCUUCGGCGCCUGCGCCGAUGGAGGUGUAGCGACUAGACGGCACCCACCUAAGGCAAACGCUAUGGUGAAGGCAUAGUCGAGGGAGGGGCGAAAGUCACACAAACCGG
The reverse-splicing fitness of the first is higher: 0.0193 for the first, 0.00531 for the second.

Compared with GUGCCUUGCGCCGGGAAACCACGCAAGGGAUGGUGUCAAAUUCGGCGAAACCUAAGCGCCCGCCCGGGCGUAUGGCAACGCGGAGCCAAGCUUCGGCGCCUGCGCCGAUGGAGGUGUAGCGACUAGACGGCACCCACCUAAGGCAAACGCUAUGGUGAAGGCAUAGUCGAGGGAGAGGCGAAAGUCACACAAACCGG, GUGCCUUGCGCCGGGAAACCACGCAAGGGAUGGUGUCAAAUUCGGCGAAACCUAAGCGCCCGCCCGGGCGUAUGGCAACGCGGAGCCAAGCUUCGGCGCCUGCGCCGAUGGAGGUGUAGGGACUAGACGGCACCCACCUAAGGCCAACGAUAUGGUGAAGGCAUAGUCCAGGGAGUGGCGAAAGUCACACAAACCGG is lower in reverse-splicing fitness: 0.0164 for the first, 0.00699 for the second.

Compared with GUGCCUUGCGCCGGGAAACCACGCAAGGGAUGGUGUCAAAUUCGGCGAAACCUAAGCGCCCGCCCGGGCGUAUGGCAACGCGGAGCCAAGCUUCGGCGCCUGCGCCGAUGGAGGUGUAGCGACUAGACGGCACCCACCUAAGGCAAACGCUAUGGUGAAGGCAUAGUCAAGGGAGAGGCGAAAGUCACACAAACCGG, GUGCCUUGCGCCGGGAAACCACGCAAGGGAUGGUGUCAAAUUCGGCGAAACCUAAGCGCCCGCCCGGGCGUAUGGCAACGCGGAGCCAAGCUUCGGCGCCUGCGCCGAUGGAGGUGUAGCGACUAGACGGCACCCACCUAAGGCAAACGCUAUGGUGAAGGCAUAGUCAAGGGAGGGGCGAAAGUCACACAAACCGG is lower in reverse-splicing fitness: 0.017 for the first, 0.00532 for the second.

Going from GUGCCUUGCGCCGGGAAACCACGCAAGGGAUGGUGUCAAAUUCGGCGAAACCUAAGCGCCCGCCCGGGCGUAUGGCAACGCGGAGCCAAGCUUCGGCGCCUGCGCCGAUGGAGGUGUAGCGACUAGACGGCACCCACCUAAGGCAAACGCUAUGGUGAAGGCAUAGUCAAGGGAGCGGCGAAAGUCACACAAACCGG to GUGCCUUGCGCCGGGAAACCACGCAAGGGAUGGUGUCAAAUUCGGCGAAACCUAAGCGCCCGCCCGGGCGUAUGGCAACGCGGAGCCAAGCUUCGGCGCCUGCGCCGAUGGAGGUGUAGCGACUAGACGGCACCCACCUAAGGCAAACGCUAUGGUGAAGGCAUAGUCAAGGGAGUGGCGAAAGUCACACAAACCGG, the reverse-splicing fitness falls from 0.0162 to 0.0101.

First: GUGCCUUGCGCCGGGAAACCACGCAAGGGAUGGUGUCAAAUUCGGCGAAACCUAAGCGCCCGCCCGGGCGUAUGGCAACGCGGAGCCAAGCUUCGGCGCCUGCGCCGAUGGAGGUGUAGCGACUAGACGGCACCCACCUAAGGCAAACGCUAUGGUGAAGGCAUAGUCUAGGGAGUGGCGAAAGUCACACAAACCGG
Second: GUGCCUUGCGCCGGGAAACCACGCAAGGGAUGGUGUCAAAUUCGGCGAAACCUAAGCGCCCGCCCGGGCGUAUGGCAACGCGGAGCCAAGCUUCGGCGCCUGCGCCGAUGGAGGUGUAGCGACUAGACGGCACCCACCUAAGGCAAACGCUAUGGUGAAGGCAUAGUCGAGGGAGUGGCGAAAGUCACACAAACCGG
The reverse-splicing fitness of the first is higher: 0.0179 for the first, 0.00841 for the second.
